Data: the nanobody polyreactivity screen of Harvey et al. (2022)

Assay: yeast display, Sf9 membrane polyspecificity reagent, FACS + sequencing; frameworks hold sequencing errors
How it was run: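 Genes from sorted yeast were amplified by colony PCR, read by MiSeq 2 × 250 sequencing and filtered on CDR length. These cells carried a synthetic nanobody library in Saccharomyces cerevisiae BJ5465 and were sorted by FACS into low and high (top ~1%) gates on anti-HA and streptavidin fluorescence. Polyreactivity is labelled according to the gate of origin.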

Row | Sequence | polyreactivity (PSR sort gate)
1 | QVQLVESGGGLVQAGGSLRLSCAASGSIFERYDMGWYRQAPGKERELVAAITSAGITYYADSVKGRFTISRDNAKNTVYLQMNSLKPEDTAVYYCAASYYYGYDYWGQGTQVTVSS | low polyreactivity
2 | QVQLVESGGGLVQAGGSLRLSCAASGSIFERYTMGWYRQAPGKERELVAAISRSGGRTYYADSVKGRFTISRDNAKNTVYLQMNSLKPEDTAVYYCARTRVASKGYDYWGQGTQVTVSS | high polyreactivity
3 | QVQLVESGGGLVQAGGSLRLSCAASGSIFESYAMGWYRQAPGKERELVAAIDYSGGSTYYADSVKGRFTISRDNAKNSVYLQMNSLKREDTAVYYCAAGYRTYYGYRYGYWGQGTQVTVSS | high polyreactivity
4 | QVQLVESGGGLVQAGGSLRLSCAASGSIFESYAMGWYRQAPGKERELVAAITKRGGSTYYADSVKGRFTISRDNAKNTVYLQMNSLKPEDTAVYYCNARWPGIGPIYDYWGQGTQVTVSS | low polyreactivity
5 | QVQLVESGGGLVQAGGSLRLSCAASGSIFESYVMGWYRQAPGKERELVAAISSGGSTYYADSVKGRFTISRDNAKNTVYLQMNSLKPEDTAVYYCAKRSHTYSVPGVYNEGDYWGQGTQVTVSS | low polyreactivity
6 | QVQLVESGGGLVQAGGSLRLSCAASGSIFEVNAMGLYRQAPGKERELVAAISCSGGSTYYADSVKGRFTISRDNAKNTVYLQMNSLKPEDTAVYYCAADWRQGLWYGYYYWGQGTQVTVSS | low polyreactivity
7 | QVQLVESGGGLVQAGGSLRLSCAASGSIFEWYAMGWYRQAPGKDRELVADITYNGGSTYYADSVKGRFTISRDNAKNTVYLQMNSLKPEDTAVYYCAADYFVQVPDYYYASEYGYWGQGTQGTVSS | low polyreactivity
8 | QVQLVESGGGLVQAGGSLRLSCAASGSIFEYNDMGSYRQAPGKERELVAAITTGGRTSYADSVKGRFTISRDNAKYTVYLQMNSLKPEDTAVYYCNKDHSSYGASGYDYWGQGTQVTVSS | low polyreactivity
9 | QVQLVESGGGLVQAGGSLRLSCAASGSIFEYNDMGWYRQAPGKERELVAAISWNGGSTYYADSVKGRFTISRDNAKNTVYLPMNSLKPEETAVYYCNTRYSPGYQGTEVDYWGQGTQVTVSS | low polyreactivity
10 | QVQLVESGGGLVQAGGSLRLSCAASGSIFFGNAMGWYRQAPGKERELVAAISTTGGSTYYADSVKGRFTISRDNAKNTVYLQMNSLKPEDTAVYYCNADRATWWEQWWYDYWGQGTLVTVSS | low polyreactivity
11 | QVQLVESGGGLVQAGGSLRLSCAASGSIFFGNAMGWYRQATGKERELVAAITRRGGSTYYADSVKGRFTISRDNAKNTVYLQMNSLKPEDTAVYYCNAVSKRYGYGYWGQGTQVTVSS | high polyreactivity
12 | QVQLVESGGGLVQAGGSLRLSCAASGSIFFGYAMGSYRQAPGKERELVAAISTRGGSTYYADSVKGRFTISRDNAKNTFYLQMNSLKPEDTAVYYSAADYLDSTYGYVYGWDDYWGQGTQVTVSS | low polyreactivity
13 | QVQLVESGGGLVQAGGSLRLSCAASGSIFFGYAMGWYRQAPGKERELVAAISTRGGRTYYADSVKGRFTISRDNAKNTVYLQMNSLKPEDTAVYYCAAFQAHQTAFDYWGQGTQVTVSS | high polyreactivity
14 | QVQLVESGGGLVQAGGSLRLSCAASGSIFFKYTMGWYRQAPGKEREFVAAISYSGGRTYYADSVKGRFTISRDNAKNTVYLQMNSLKPEDTSVYYCATRDEITHGDRMDYWGQGTQVTVSS | low polyreactivity
15 | QVQLVESGGGLVQAGGSLRLSCAASGSIFFLYAMGWYRQATGKEREFVAAITGTADSTYYADSVKGRFTISRDDAKNTVYLQMNSLNPEDTAVYYCATDYWSSVKLDDYWGQGTQVTVSS | low polyreactivity
16 | QVQLVESGGGLVQAGGSLRLSCAASGSIFFPNAMGWYRQAPGKERELVAAISWSGDSTYADSVKGRFTISRDNAKNTVYLQMNSLKPEETAVYSCAAVYLWWSYEFDYWGQGTHVTVSS | low polyreactivity
17 | QVQLVESGGGLVQAGGSLRLSCAASGSIFFPYAMGWYRQAPGKERELVAAISQSAGSTFYADSVKGRFTISRDNAKHTVYLQKNSLKPEDTAVYYCAKSGDADFYYTYYYWGQGTQVTVSS | low polyreactivity
18 | QVQLVESGGGLVQAGGSLRLSCAASGSIFFPYAMGWYRQATGKERELVASINSGGITTYADSVKGRFTISRDNAKNTVYLQMNSLKPEDTAVYYCARYVSYRWVRYNYWGQGTQVTVSS | high polyreactivity
19 | QVQLVESGGGLVQAGGSLRLSCAASGSIFFPYLMGWYRQAPGKERELVAAITYRAGSTYYADSVKGRFTISRDNAKNTVYLQMNSLKPEDTAVYYCAAVVSRSGEFGYWGQGTQVTVSS | low polyreactivity
20 | QVQLVESGGGLVQAGGSLRLSCAASGSIFFRYTMGWSRQAPGTERELVAAITGSGGSTYYADSVKGRFTISRDNAKNTVYLQMNSLKTEDTAVYYCARPGWGRYEYWGQGTQVTVSS | high polyreactivity
21 | QVQLVESGGGLVQAGGSLRLSCAASGSIFFSNAMGWYRQAPGKERELVAAITSSGASTYYADSVKGRFTISRDNAKNTVYLQMNSLKPEDTAVYYCAVVGRGKRYGYWGQGTQVTVSS | high polyreactivity
22 | QVQLVESGGGLVQAGGSLRLSCAASGSIFFSNAMGWYRQAPGKERELVAVITYSGGGTYYADSVKGRFTISRDNAKNTVYLQMNSLKPEDTAVYYCNTDLGPDGISWHWYAYDYWGQGTQVTVSS | low polyreactivity

Row | Sequence | polyreactivity (PSR sort gate)
23 | QVQLVESGGGLVQAGGSLRLSCAASGSIFFSYAMGWYIQAPGKERELVAAITSSVDSTYYADSVKGRFTISRDNAKNTVYLQMNSLKPEDTAVYYCAARYRSGYYRYDYWGQGTQVTVSS | low polyreactivity
24 | QVQLVESGGGLVQAGGSLRLSCAASGSIFFSYAMGWYRQAPGKERELVAAIDYSGGGTYYADSVKGRFTISRDNAKNTVYLQMNSLKPEDTAVYYCNSDTEVWAVTFISYRALNYWGQGTQVTVSS | low polyreactivity
25 | QVQLVESGGGLVQAGGSLRLSCAASGSIFFSYAMGWYRQAPGKERELVASISSGVSTNYADSEKGRFTISRDNAKNTVYLQMNSLKPEDTAVYYFAAYYRGWSSSYWYPAYNYWGQGTQVTVSS | low polyreactivity
26 | QVQLVESGGGLVQAGGSLRLSCAASGSIFFVNAMGWYRQAPGKERELVAGITGGGSTYYADSVKGRFTISRDNAKNTVYLQMNSLKPEDTAVYYCNKKAYRKTGMDYWGQGTQVTVSS | low polyreactivity
27 | QVQLVESGGGLVQAGGSLRLSCAASGSIFFYNTMGWYRQAPGKERELVAAISASGGRTYYADSVKGRFTISRDNAKNTVYLQMNSLKPEDTAVYYCAVRVPYRGYTRYDYWGQGTQVTVSS | high polyreactivity
28 | QVQLVESGGGLVQAGGSLRLSCAASGSIFFYYAMGWYRQAPGKERELVAAIRSGTSTNYADSVKGRFTISRDNAKNTVYLQMNSLKPEDTAVYYCAARFPGGGYGMDYWGQGTKVTVSS | low polyreactivity
29 | QVQLVESGGGLVQAGGSLRLSCAASGSIFFYYAMGWYRQAPGKERELVAAITKIGVGTFYADSVKGRFTISRDNAKNTVYLQMNSLKPEDTAVYYCNARTAWEGYDYWGQGTQVTVSS | low polyreactivity
30 | QVQLVESGGGLVQAGGSLRLSCAASGSIFFYYAMGWYRQAPGKERELVAAITSSGDSTYYADSVKGRFTISRDNAKNTVYLQMNSLKPEDTAVYYCAALYIGYTGYYYWGQGTQVSVSS | low polyreactivity
31 | QVQLVESGGGLVQAGGSLRLSCAASGSIFFYYAMGWYRQAPGKERELVATINWSGGSTYYADSVKGRFTISRDNAKNTVYLQMNSLKPEDTAVYYCAAKDITLPGTMDSWGQGTQVTVSS | low polyreactivity
32 | QVQLVESGGGLVQAGGSLRLSCAASGSIFFYYTMGWYRQAPGKERELVAAISDSGGSTYYADSVKGRFTISRDNAKNTVYLQMNSLKPEDTAVYYCAAADWFTVLESERVDYWGQGTQVTVSS | low polyreactivity
33 | QVQLVESGGGLVQAGGSLRLSCAASGSIFFYYVMGWYRQAPGKERELVAVISSGGGSTYYADSVKGRFTISRDNAKNTVYLQMNSLKPEDTAVYYCAAGTYYKFYYWGQGTQVTVSS | high polyreactivity
34 | QVQLVESGGGLVQAGGSLRLSCAASGSIFGANAMGWYRQAPGKERELVAAISTRGGRTYYADSVKGRFTISRDNAKNTVYLQMNSLKPEDTAVYYCATSGGRPYKYEYWGQGTQVTVSS | high polyreactivity
35 | QVQLVESGGGLVQAGGSLRLSCAASGSIFGAYAMGWYRQAPGKERELVAAISGSGTSTYYADSVKGRFTISRDNAKNTVYLQMNSLKPEDTAVYYCAADGTYFYLYLGDRFDYWGQGTQVTVSS | low polyreactivity
36 | QVQLVESGGGLVQAGGSLRLSCAASGSIFGAYAMGWYRQAPGKERELVASITGNGGSTYYADSVKGRFTISRDNAKNTVYLQMNSLKPEDTAVYDCAADDYSTRYRWFYYGSPYYYWGQGTQVTVSS | high polyreactivity
37 | QVQLVESGGGLVQAGGSLRLSCAASGSIFGAYAMGWYRQAPGKERELVATITLRDGSTYYADSVKGRFTISRDNAKNTVYLQMNSLKPEDTAVYYCATYYSAINYGWSNTILYDYWGQGTQVTVSS | low polyreactivity
38 | QVQLVESGGGLVQAGGSLRLSCAASGSIFGAYAMGWYRQAPGKETELVASITGNGGSTYYADSVKGRFTISRDNAKNTVYLQMNSLKPEDTAVYYCAADDYSTRYRWFYYGSPYYYWGQGTQVTVSS | high polyreactivity
39 | QVQLVESGGGLVQAGGSLRLSCAASGSIFGAYAMGWYRQAPGKEWELVAAISWRDGSTYYADSVKGRFTISRDNAKNTVYLQMNCLKPEDTAVYYCAAEYVYIFYDSYYWGQGTQVTVSS | high polyreactivity
40 | QVQLVESGGGLVQAGGSLRLSCAASGSIFGDNAMGWYRQAPGKERELVAAISIVGSTSYADSVKGRFTISRDNAKNTVYLPMNSLKPEDTAVYYCAAETVRSDTGFDYWGQGTQVTVSS | low polyreactivity
41 | QVQLVESGGGLVQAGGSLRLSCAASGSIFGDNAMGWYRQAPGKERELVARISSGGNTYYADSVKGRFTISRDNAKNTVYLQMNSLKPEDTAVYYCAAAIKVSYKKFPYYYWGQGTQVTVSS | high polyreactivity
42 | QVQLVESGGGLVQAGGSLRLSCAASGSIFGDNAMGWYRQAPGKERELVASITWSGGSTFYADSVKGRFTISRDNAKNTVYLQMNSLKPEDTAVYYCNADYAESPYFYLLLDYWGQGTQVTVSS | low polyreactivity
43 | QVQLVESGGGLVQAGGSLRLSCAASGSIFGDNTMGWYRQAPGKERELVAAISWRGGSTYYADSVKGRFTISRDNAKNTVYLQMNSLKPEDTAVYYCIGGPGGYDYWGQGTQVTVSS | low polyreactivity
